The results in this text go back to patent US20050256302A1, “Novel peptides having camp producing activity” (Japan Science and Technology Agency, priority 2002, published 2005).

Bridges are numbered along the chain shown (N, C = ends). Where no end group is shown, it is not given here.

For one assay, the system named is LLC-PK1 cells. The experiment in a line: cAMP production in LLC-PK1 cells by bovine or canine CRSP. Format: cell-based, pig. The following applies: 10 minutes, IBMX. As for the experimental part: Further, with regard to the peptides of the present invention identified in cow and dog (bovine CRSP and canine CRSP), cAMP productivity of CRSP using LLC-PK1 cells by the same manner as above was investigated.
LLC-PK1 cells were incubated in a culture medium (a Dulbecco-modified Eagle medium (DMEM) containing 10% of fetal bovine serum). After two days, the cells were washed twice with a DMEM containing 0.05% of bovine serum albumin, the medium in the incubation dish was substituted with a DMEM containing 0.5 mM of 3-isobutyl-1-methylxanthine and 0.05% of bovine serum albumin (DMEM/BSA/IBMX) and incubation was conducted at 37° C. for 30 minutes. After the incubation, the medium was substituted with a DMEM/BSA/IBMX in which CRSP was dissolved so as to make it 0 M and 10^−12 to 10^−6 M and incubation was conducted at 37° C. for 10 minutes. After the incubation, the medium in the incubating dish was removed, ethanol was added thereto and the incubating dish was once frozen in a freezer for the cell lysis. […] After that, 100 μl of 1% γ-globulin and 500 μl of 25% polyethylene glycol were added, the mixture was well mixed and centrifuged and radioactivity of the precipitate was measured using a gamma-counter and compared with radioactivity of the standard curve prepared by cAMP of known concentrations whereupon the amount of cAMP was quantified.

Assay [1] concerns the target T1, Pig calcitonin receptor (CTR) (Sus scrofa, UniProt P25117).
T1 construct: expressed in transfected cells; host or cells: COS-7 (given as rhesus monkey renal cells), vector pcDNA 3.1
T1 sequence (P25117 30-498): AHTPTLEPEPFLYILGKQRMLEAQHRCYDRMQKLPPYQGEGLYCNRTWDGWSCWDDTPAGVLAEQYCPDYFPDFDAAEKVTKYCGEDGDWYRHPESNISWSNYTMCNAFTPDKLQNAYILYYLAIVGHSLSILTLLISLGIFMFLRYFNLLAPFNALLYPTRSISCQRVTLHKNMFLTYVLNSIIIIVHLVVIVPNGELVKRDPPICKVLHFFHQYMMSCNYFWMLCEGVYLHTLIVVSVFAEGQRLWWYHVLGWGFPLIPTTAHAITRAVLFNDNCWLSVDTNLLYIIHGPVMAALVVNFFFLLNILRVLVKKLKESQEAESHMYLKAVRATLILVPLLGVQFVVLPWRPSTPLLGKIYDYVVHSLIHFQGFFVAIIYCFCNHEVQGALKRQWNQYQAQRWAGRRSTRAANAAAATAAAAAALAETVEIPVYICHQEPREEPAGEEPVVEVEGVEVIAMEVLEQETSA
The experiment in a line: cAMP production in COS-7 cells expressing pig calcitonin receptor. Format: cell-based. The following applies: CTR expressed in COS-7. Here is the method:
Pig calcitonin receptor (CTR) was introduced into a mammalian expression vector pcDNA 3.1, expressed in rhesus monkey renal cells (COS-7) and production amount of cAMP by stimulation of CRSP was measured by radioimmunoassay. Similarly, CTR was expressed in opossum renal cells (OK cells) and production amount of cAMP by stimulation of CRSP was measured by radioimmunoassay while incorporation of sodium ion was measured by measuring the incorporation of sodium chloride having radioactivity (^22Na) by a gamma-counter.
Pig calcitonin receptor (CTR) was introduced into mammalian expression vector pcDNA 3.1 and then expressed in rhesus monkey renal cells (COS-7) whereupon production amount of cAMP by CRSP stimulation was measured by radioimmunoassay.
Pig calcitonin receptor (CTR) was introduced into a mammalian expression vector pcDNA 3.1 and expressed in rhesus monkey renal cells (COS-7) and production amount of cAMP by CRSP stimulation was measured by radioimmunoassay.
Pig calcitonin receptor (CTR) was introduced into a mammalian expression vector pcDNA 3.1, then expressed in rhesus monkey renal cells (COS-7) and production amount of cAMP by CRSP or CRSP-Gly stimulation was measured-by radioimmunoassay.

Assay [2] addresses T2, pig calcitonin receptor (CTR) (pig, UniProt P25117).
T2 sequence: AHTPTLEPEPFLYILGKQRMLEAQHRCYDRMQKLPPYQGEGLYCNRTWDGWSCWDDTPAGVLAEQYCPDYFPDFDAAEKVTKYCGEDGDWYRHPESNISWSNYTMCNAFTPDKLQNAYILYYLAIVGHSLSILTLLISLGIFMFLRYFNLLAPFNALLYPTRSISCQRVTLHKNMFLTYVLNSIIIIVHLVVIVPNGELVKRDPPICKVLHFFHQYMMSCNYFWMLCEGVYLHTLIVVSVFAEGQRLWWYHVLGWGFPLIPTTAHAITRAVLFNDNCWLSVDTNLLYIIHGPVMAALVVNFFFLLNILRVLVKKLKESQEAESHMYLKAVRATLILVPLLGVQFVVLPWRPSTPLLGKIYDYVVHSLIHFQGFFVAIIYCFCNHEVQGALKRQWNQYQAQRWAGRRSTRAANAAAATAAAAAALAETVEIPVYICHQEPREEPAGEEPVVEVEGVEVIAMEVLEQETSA
The experiment in a line: cell-based or functional assay.

As for “SCNSATCVAHWLGGLLSRAGSVANTNLLPTSMGFKVYN-OH (not fully specified (bridges); printed as SCNSATCVAHWLGGLLSRAGSVANTNLLPTSMGFKVYN-OH; cysteine pairing not given here; listed as Canis sp.) [canine CRSP]”, the “cAMP productivity compared with pig CRSP” value in the assay with LLC-PK1 cells is on record as “nearly the same result as in the case of pig CRSP”.
“Ser-Cys-Asn-Thr-Ala-Thr-Cys-Met-Thr-His-Arg-Leu-Val-Gly-Leu-Leu-Ser-Arg-Ser-Gly-Ser-Met-Val-Arg-Ser-Asn-Leu-Leu-Pro-Thr-Lys-Met-Gly-Phe-Lys-Val-Phe-Gly-Gly-OH (SCNTATCMTHRLVGLLSRSGSMVRSNLLPTKMGFKVFGG-OH; not fully specified (bridges); printed as Ser-Cys-Asn-Thr-Ala-Thr-Cys-Met-Thr-His-Arg-Leu-Val-Gly-Leu-Leu-Ser-Arg-Ser-Gly-Ser-Met-Val-Arg-Ser-Asn-Leu-Leu-Pro-Thr-Lys-Met-Gly-Phe-Lys-Val-Phe-Gly-Gly-OH; cysteine pairing not given here; listed as Sus sp.) [CRSP-Gly]”: the “cAMP productivity, CRSP compared with CRSP-Gly” value in assay [1] is “nearly the same cAMP productivity”.
In the case of “ACNTATCMTHRLAGWLSRSGSMVRSNLLPTKMGFKIFNGP-OH (not fully specified (bridges); printed as ACNTATCMTHRLAGWLSRSGSMVRSNLLPTKMGFKIFNGP-OH; cysteine pairing not given here; listed as Bos sp.) [bovine CRSP]”, in the assay on LLC-PK1 cells, the “cAMP productivity compared with pig CRSP” value is reported as “nearly the same result as in the case of pig CRSP”.

B1: pig calcitonin receptor-stimulating peptide (CRSP) (peptide)
peptide: SCNTATCMTHRLVGLLSRSGSMVRSNLLPTKMGFKVFG-NH2
modifications: disulfide 2-7; N-terminus assumed
SMILES: CSCC[C@H](NC(=O)[C@H](CCCCN)NC(=O)[C@@H](NC(=O)[C@@H]1CCCN1C(=O)[C@H](CC(C)C)NC(=O)[C@H](CC(C)C)NC(=O)[C@H](CC(N)=O)NC(=O)[C@H](CO)NC(=O)[C@H](CCCNC(=N)N)NC(=O)[C@@H](NC(=O)[C@H](CCSC)NC(=O)[C@H](CO)NC(=O)CNC(=O)[C@H](CO)NC(=O)[C@H](CCCNC(=N)N)NC(=O)[C@H](CO)NC(=O)[C@H](CC(C)C)NC(=O)[C@H](CC(C)C)NC(=O)CNC(=O)[C@@H](NC(=O)[C@H](CC(C)C)NC(=O)[C@H](CCCNC(=N)N)NC(=O)[C@H](Cc1c[nH]cn1)NC(=O)[C@@H](NC(=O)[C@H](CCSC)NC(=O)[C@@H]1CSSC[C@H](NC(=O)[C@@H](N)CO)C(=O)N[C@@H](CC(N)=O)C(=O)N[C@@H]([C@@H](C)O)C(=O)N[C@@H](C)C(=O)N[C@@H]([C@@H](C)O)C(=O)N1)[C@@H](C)O)C(C)C)C(C)C)[C@@H](C)O)C(=O)NCC(=O)N[C@@H](Cc1ccccc1)C(=O)N[C@@H](CCCCN)C(=O)N[C@H](C(=O)N[C@@H](Cc1ccccc1)C(=O)NCC(N)=O)C(C)C
In the case of B1, in assay [2], the “cAMP-producing activity relative to pig CGRP, LLC-PK1 cells” value was roughly 40 fold; the “cAMP-producing activity relative to pig calcitonin, COS-7 cells expressing pig CTR” value is roughly 350 fold; the “cAMP-producing activity relative to pig calcitonin, LLC-PK1 cells” value was roughly 6 fold.
